Assay results from patent publication US20260242735A1 (UNIVERSIT T BASEL, published 2026).

Experiments:
human CD33 P19K = human CD33 P19K (human, UniProt P20138 18-364); assay: flow cytometry, HEK293-T, IgG;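 further: CD33 point mutants transiently expressed, antibody binding measured by fluorescence in duplicate, background subtracted and scaled to binding on wild-type CD33 as 100%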
Procedure: (§1) An alanine scan on human CD33 was performed to the determine the residues on CD33 that are involved in binding to the antibodies investigated. […] Briefly, a mutation library of CD33 was created by high-throughput, site-directed mutagenesis. Each residue was individually mutated to alanine, with alanine codons mutated to serine. The mutant library was arrayed in 384-well microplates and transiently transfected into HEK293-T. Following transfection, cells were incubated with the indicated antibodies (IgG or Fab) at concentrations pre-determined using an independent immunofluorescence titration curve on wild type CD33. […] Binding of each antibody to each mutant clone was determined in duplicates. For each point, background fluorescence was subtracted from the raw data, which were then normalized to antibody reactivity with wild type CD33.
(§2) Antibodies were screened for binding to the human CD33 variants in IgG format. […] For each mutation, background fluorescence was subtracted from the raw data, which were then normalized to antibody reactivity with wild-type CD33.

human CD33 W22S = human CD33 W22S (human, UniProt P20138 18-364); assay: flow cytometry, HEK293-T, IgG;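 further: CD33 point mutants transiently expressed, antibody binding measured by fluorescence in duplicate, background subtracted and scaled to binding on wild-type CD33 as 100%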
human CD33 W22S, sequence (P20138 18-364 W22S limits assumed): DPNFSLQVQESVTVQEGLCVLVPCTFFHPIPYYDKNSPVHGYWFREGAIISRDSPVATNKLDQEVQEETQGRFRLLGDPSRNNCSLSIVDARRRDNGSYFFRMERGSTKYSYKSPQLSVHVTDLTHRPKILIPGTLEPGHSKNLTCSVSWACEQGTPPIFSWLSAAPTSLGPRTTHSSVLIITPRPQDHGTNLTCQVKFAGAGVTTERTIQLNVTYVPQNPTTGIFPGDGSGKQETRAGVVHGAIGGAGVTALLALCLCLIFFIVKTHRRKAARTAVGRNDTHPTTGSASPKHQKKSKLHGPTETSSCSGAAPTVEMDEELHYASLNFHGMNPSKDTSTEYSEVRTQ
Procedure: as §1, §2

human CD33 P19W = human CD33 P19W (human, UniProt P20138 18-364); assay: flow cytometry, HEK293-T, IgG;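 further: CD33 point mutants transiently expressed, antibody binding measured by fluorescence in duplicate, background subtracted and scaled to binding on wild-type CD33 as 100%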
human CD33 P19W, sequence (P20138 18-364 P19W limits assumed): as the sequence (P20138 18-364 W22S limits assumed) above, with P2W, S5W counted along it
Procedure: as §1, §2

human CD33 N20Q [1] = target: human CD33 N20Q (human, UniProt P20138 18-364); assay: flow cytometry, HEK293-T, IgG;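 further: CD33 point mutants transiently expressed, antibody binding measured by fluorescence in duplicate, background subtracted and scaled to binding on wild-type CD33 as 100%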
Target sequence in this assay (P20138 18-364 N20Q limits assumed): as the sequence (P20138 18-364 W22S limits assumed) above, with N3Q, S5W counted along it
Procedure: as §1, §2

human CD33 N20K = human CD33 N20K (human, UniProt P20138 18-364); assay: flow cytometry, HEK293-T, IgG
human CD33 N20K, sequence (P20138 18-364 N20K limits assumed): as the sequence (P20138 18-364 W22S limits assumed) above, with N3K, S5W counted along it
Procedure: as §1, §2

human CD33 N20L = human CD33 N20L (human, UniProt P20138 18-364); assay: flow cytometry, HEK293-T, IgG
human CD33 N20L, sequence (P20138 18-364 N20L limits assumed): as the sequence (P20138 18-364 W22S limits assumed) above, with N3L, S5W counted along it
Procedure: as §1, §2

human CD33 W22T = human CD33 W22T (human, UniProt P20138 18-364); assay: flow cytometry, HEK293-T, IgG
human CD33 W22T, sequence (P20138 18-364 W22T limits assumed): as the sequence (P20138 18-364 W22S limits assumed) above, with S5T counted along it
Procedure: as §1, §2

human CD33 F21H = human CD33 F21H (human, UniProt P20138 18-364); assay: flow cytometry, HEK293-T, IgG
Procedure: as §1, §2

human CD33 P19L = human CD33 P19L (human, UniProt P20138 18-364); assay: flow cytometry, HEK293-T, IgG
Procedure: as §1, §2

human CD33 N20G [2] = target: human CD33 N20G (human, UniProt P20138 18-364); assay: flow cytometry, HEK293-T, IgG
Target sequence in this assay (P20138 18-364 N20G limits assumed): as the sequence (P20138 18-364 W22S limits assumed) above, with N3G, S5W counted along it
Procedure: as §1, §2

human CD33 W22N = human CD33 W22N (human, UniProt P20138 18-364); assay: flow cytometry, transfected cells
human CD33 W22L = human CD33 W22L (human, UniProt P20138 18-364); assay: flow cytometry, transfected cells
human CD33 Y49D = human CD33 Y49D (human, UniProt P20138 18-364); assay: flow cytometry, transfected cells
human CD33 Y50D = human CD33 Y50D (human, UniProt P20138 18-364); assay: flow cytometry, transfected cells
human CD33 Y50D, sequence (P20138 18-364 Y50D limits assumed): as the sequence (P20138 18-364 W22S limits assumed) above, with S5W, Y33D counted along it

human CD33 K52D = human CD33 K52D (human, UniProt P20138 18-364); assay: flow cytometry, transfected cells
human CD33 Y50I = human CD33 Y50I (human, UniProt P20138 18-364); assay: flow cytometry, transfected cells
human CD33 Y50I, sequence (P20138 18-364 Y50I limits assumed): as the sequence (P20138 18-364 W22S limits assumed) above, with S5W, Y33I counted along it

human CD33 P48G = human CD33 P48G (human, UniProt P20138 18-364); assay: flow cytometry, transfected cells
human CD33 P48Y = human CD33 P48Y (human, UniProt P20138 18-364); assay: flow cytometry, transfected cells
human CD33 Y49P = human CD33 Y49P (human, UniProt P20138 18-364); assay: flow cytometry, transfected cells
human CD33 Y50H = human CD33 Y50H (human, UniProt P20138 18-364); assay: flow cytometry, transfected cells
human CD33 P48N = human CD33 P48N (human, UniProt P20138 18-364); assay: flow cytometry, transfected cells
human CD33 P48N, sequence (P20138 18-364 P48N limits assumed): as the sequence (P20138 18-364 W22S limits assumed) above, with S5W, P31N counted along it

human CD33 P48D = human CD33 P48D (human, UniProt P20138 18-364); assay: flow cytometry, transfected cells
human CD33 P48D, sequence (P20138 18-364 P48D limits assumed): as the sequence (P20138 18-364 W22S limits assumed) above, with S5W, P31D counted along it

human CD33 Y49C = human CD33 Y49C (human, UniProt P20138 18-364); assay: flow cytometry, transfected cells
human CD33 Y50N = human CD33 Y50N (human, UniProt P20138 18-364); assay: flow cytometry, transfected cells
human CD33 P48Q = human CD33 P48Q (human, UniProt P20138 18-364); assay: flow cytometry, transfected cells
human CD33 P48Q, sequence (P20138 18-364 P48Q limits assumed): as the sequence (P20138 18-364 W22S limits assumed) above, with S5W, P31Q counted along it

human CD33 N20G [3] = target: human CD33 N20G (human, UniProt P20138 18-364); assay: flow cytometry, transfected cells
Target sequence in this assay (P20138 18-364 N20G limits assumed): as the sequence (P20138 18-364 W22S limits assumed) above, with N3G, S5W counted along it

human CD33 N20E = human CD33 N20E (human, UniProt P20138 18-364); assay: flow cytometry, transfected cells
human CD33 N20T = human CD33 N20T (human, UniProt P20138 18-364); assay: flow cytometry, transfected cells
human CD33 N20V = human CD33 N20V (human, UniProt P20138 18-364); assay: flow cytometry, transfected cells
human CD33 N20P = human CD33 N20P (human, UniProt P20138 18-364); assay: flow cytometry, transfected cells
human CD33 P46Y = human CD33 P46Y (human, UniProt P20138 18-364); assay: flow cytometry, transfected cells
human CD33 F21S = human CD33 F21S (human, UniProt P20138 18-364); assay: flow cytometry, transfected cells
human CD33 P46R = human CD33 P46R (human, UniProt P20138 18-364); assay: flow cytometry, transfected cells
human CD33 N20W = human CD33 N20W (human, UniProt P20138 18-364); assay: flow cytometry, transfected cells
human CD33 N20Q [4] = target: human CD33 N20Q (human, UniProt P20138 18-364); assay: flow cytometry, transfected cells
Target sequence in this assay (P20138 18-364 N20Q limits assumed): as the sequence (P20138 18-364 W22S limits assumed) above, with N3Q, S5W counted along it

human CD33 P19D = human CD33 P19D (human, UniProt P20138 18-364); assay: flow cytometry, transfected cells
human CD33 F21I = human CD33 F21I (human, UniProt P20138 18-364); assay: flow cytometry, transfected cells
human CD33 N20Y = human CD33 N20Y (human, UniProt P20138 18-364); assay: flow cytometry, transfected cells
human CD33 P46D = human CD33 P46D (human, UniProt P20138 18-364); assay: flow cytometry, transfected cells
human CD33 P46F = human CD33 P46F (human, UniProt P20138 18-364); assay: flow cytometry, transfected cells

human CD33 P19K, sequence (P20138 18-364 P19K limits assumed): as the sequence (P20138 18-364 W22S limits assumed) above, with P2K, S5W counted along it

B1: Refmab #6 (antibody, human IgG1, V domains shown)
VH: QVQLQQPGAEVVKPGASVKMSCKASGYTFTSYYIHWIKQTPGQGLEWVGVIYPGNDDISYNQKFQGKATLTADKSSTTAYMQLSSLTSEDSAVYYCAREVRLRYFDVWGQGTTVTVSS
VL: EIVLTQSPGSLAVSPGERVTMSCKSSQSVFFSSSQKNYLAWYQQIPGQSPRLLIYWASTRESGVPDRFTGSGSGTDFTLTISSVQPEDLAIYYCHQYLSSRTFGQGTKLEIK
notes: tested in IgG format
- Mean % WT Binding (human CD33 P19K): 85.4 % WT binding
- Mean % WT Binding (human CD33 W22S): 6.7 % WT binding
- Mean % WT Binding (human CD33 P19W): 75.5 % WT binding
- Mean % WT Binding (human CD33 N20Q [1]): 97.2 % WT binding
- Mean % WT Binding (human CD33 N20K): 91.8 % WT binding
- Mean % WT Binding (human CD33 N20L): 88.2 % WT binding
- Mean % WT Binding (human CD33 W22T): 2.6 % WT binding
- Mean % WT Binding (human CD33 F21H): 111 % WT binding
- Mean % WT Binding (human CD33 P19L): 103 % WT binding
- Mean % WT Binding (human CD33 N20G [2]): 101 % WT binding

B2: Refmab #6 (antibody, human IgG1, V domains shown)
VH: B1 VH
VL: B1 VL
- binding result (human CD33 W22N): no binding (tested: below 20%)
- binding result (human CD33 W22L): no binding (tested: below 20%)

B3: Refmab #4 (antibody, human IgG1, V domains shown)
VH: QVQLVQSGAEVKKPGESVKVSCKASGYTFTNYGMNWVKQAPGQGLEWMGWINTYTGEPTYADKFQGRVTMTTDTSTSTAYMEIRNLGGDDTAVYYCARWSWSDGYYVYFDYWGQGTSVTVSS
VL: DIVMTQSPDSLTVSLGERTTINCKSSQSVLDSSTNKNSLAWYQQKPGQPPKLLLSWASTRESGIPDRFSGSGSGTDFTLTIDSPQPEDSATYYCQQSAHFPITFGQGTRLEIK
- binding result (human CD33 Y49D): no binding (tested: below 20%)
- binding result (human CD33 Y50D): no binding (tested: below 20%)
- binding result (human CD33 K52D): no binding (tested: below 20%)
- binding result (human CD33 Y50I): no binding (tested: below 20%)
- binding result (human CD33 P48G): no binding (tested: below 20%)
- binding result (human CD33 P48Y): no binding (tested: below 20%)
- binding result (human CD33 Y49P): no binding (tested: below 20%)
- binding result (human CD33 Y50H): no binding (tested: below 20%)
- binding result (human CD33 P48N): no binding (tested: below 20%)
- binding result (human CD33 P48D): no binding (tested: below 20%)
- binding result (human CD33 Y49C): no binding (tested: below 20%)
- binding result (human CD33 Y50N): no binding (tested: below 20%)
- binding result (human CD33 P48Q): no binding (tested: below 20%)

B4: Refmab #5 (antibody, human IgG1, V domains shown)
VH: QVQLVQSGAEVKKPGASVKVSCKASGYTFTNYDINWVRQAPGQGLEWIGWIYPGDGSTKYNEKFKAKATLTADTSTSTAYMELRSLRSDDTAVYYCASGYEDAMDYWGQGTTVTVSS
VL: DIQMTQSPSSLSASVGDRVTINCKASQDINSYLSWFQQKPGKAPKTLIYRANRLVDGVPSRFSGSGSGQDYTLTISSLQPEDFATYYCLQYDEFPLTFGGGTKVEIK
notes: tested in IgG format
- Mean % WT Binding (human CD33 P19K): 86.2 % WT binding
- Mean % WT Binding (human CD33 W22S): 89.7 % WT binding
- Mean % WT Binding (human CD33 P19W): 85.9 % WT binding
- Mean % WT Binding (human CD33 N20Q [1]): 93.2 % WT binding
- Mean % WT Binding (human CD33 N20K): 105 % WT binding
- Mean % WT Binding (human CD33 N20L): 96.3 % WT binding
- Mean % WT Binding (human CD33 W22T): 108 % WT binding
- Mean % WT Binding (human CD33 F21H): 108 % WT binding
- Mean % WT Binding (human CD33 P19L): 100 % WT binding
- Mean % WT Binding (human CD33 N20G [2]): 96.9 % WT binding

B5: Refmab #5 (antibody, human IgG1, V domains shown)
VH: B4 VH
VL: B4 VL
- binding result (human CD33 Y49D): no binding (tested: below 20%)
- binding result (human CD33 Y50D): no binding (tested: below 20%)
- binding result (human CD33 K52D): no binding (tested: below 20%)
- binding result (human CD33 Y50I): no binding (tested: below 20%)
- binding result (human CD33 P48G): no binding (tested: below 20%)
- binding result (human CD33 P48Y): no binding (tested: below 20%)
- binding result (human CD33 Y49P): no binding (tested: below 20%)
- binding result (human CD33 Y50H): no binding (tested: below 20%)
- binding result (human CD33 P48N): no binding (tested: below 20%)
- binding result (human CD33 P48D): no binding (tested: below 20%)
- binding result (human CD33 Y49C): no binding (tested: below 20%)
- binding result (human CD33 Y50N): no binding (tested: below 20%)
- binding result (human CD33 P48Q): no binding (tested: below 20%)

B6: Refmab #1 (antibody, human IgG1, V domains shown)
VH: EVQLVQSGAEVKKPGSSVKVSCKASGYTITDSNIHWVRQAPGQSLEWIGYIYPYNGGTDYNQKFKNRATLTVDNPTNTAYMELSSLRSEDTAFYYCVNGNPWLAYWGQGTLVTVSS
VL: DIQLTQSPSTLSASVGDRVTITCRASESLDNYGIRFLTWFQQKPGKAPKLLMYAASNQGSGVPSRFSGSGSGTEFTLTISSLQPDDFATYYCQQTKEVPWSFGQGTKVEVK
notes: also called hP67.6; Absolute Antibody Cat. No. Ab00283-10.0
- binding result (human CD33 N20G [3]): no binding (tested: below 20%)
- binding result (human CD33 N20E): no binding (tested: below 20%)
- binding result (human CD33 N20T): no binding (tested: below 20%)
- binding result (human CD33 N20V): no binding (tested: below 20%)
- binding result (human CD33 N20P): no binding (tested: below 20%)
- binding result (human CD33 P46Y): no binding (tested: below 20%)
- binding result (human CD33 F21S): no binding (tested: below 20%)
- binding result (human CD33 P46R): no binding (tested: below 20%)
- binding result (human CD33 N20W): no binding (tested: below 20%)
- binding result (human CD33 N20Q [4]): no binding (tested: below 20%)
- binding result (human CD33 P19D): no binding (tested: below 20%)
- binding result (human CD33 F21I): no binding (tested: below 20%)
- binding result (human CD33 N20Y): no binding (tested: below 20%)
- binding result (human CD33 P46D): no binding (tested: below 20%)
- binding result (human CD33 P46F): no binding (tested: below 20%)
